T1: factor XII (Homo sapiens, UniProt P00748)
T1 construct: purified human factor XII from plasma (Calbiochem); purchased Calbiochem; host or cells: human plasma
T1 sequence (P00748 20-615): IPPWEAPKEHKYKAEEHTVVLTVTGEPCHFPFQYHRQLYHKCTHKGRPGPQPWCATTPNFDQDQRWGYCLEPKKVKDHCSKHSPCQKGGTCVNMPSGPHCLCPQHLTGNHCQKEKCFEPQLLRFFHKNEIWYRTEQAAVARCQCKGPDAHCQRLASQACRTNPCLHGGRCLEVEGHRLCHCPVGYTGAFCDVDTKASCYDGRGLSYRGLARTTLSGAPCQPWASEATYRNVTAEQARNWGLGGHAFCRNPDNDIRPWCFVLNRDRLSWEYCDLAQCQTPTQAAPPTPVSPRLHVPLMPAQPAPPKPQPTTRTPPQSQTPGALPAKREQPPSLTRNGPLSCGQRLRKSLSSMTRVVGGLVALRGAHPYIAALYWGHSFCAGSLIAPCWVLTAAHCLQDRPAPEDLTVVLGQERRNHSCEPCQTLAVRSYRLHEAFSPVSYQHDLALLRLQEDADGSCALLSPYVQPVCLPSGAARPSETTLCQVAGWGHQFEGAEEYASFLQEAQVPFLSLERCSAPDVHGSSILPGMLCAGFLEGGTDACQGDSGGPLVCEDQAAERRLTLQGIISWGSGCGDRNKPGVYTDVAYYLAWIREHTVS


Key:
factor XII = biological target: T1, factor XII; test: ELISA, binding of β2GPI to immobilized factor XII
Experimental: (§1) Binding of purified human factor XII from plasma (Calbiochem) or of purified recombinant human tPA to β2GPI purified from human plasma, or to recombinant human β2GPI was tested in an ELISA. Ten μg of factor XII or tPA in PBS was coated onto wells of a Costar 2595 ELISA plate (Cambridge, USA) and incubated with concentration series of the two β2GPI preparations. Binding of β2GPI was assessed with monoclonal antibody 2B2^22.

[1] = Thioflavin T fluorescence of protein solutions; type: physicochemical; conditions: after exposure to CL or DXS500k
Experimental: Fluorescence of ThT—protein/peptide adducts was measured as follows. […] Fluorescence was measured at 485 nm upon excitation at 435 nm. Background signals from buffer, buffer with ThT and protein/peptide solution without ThT were subtracted from corresponding measurements with protein solution incubated with ThT. Regularly, fluorescence of Aβ was used as a positive control, and fluorescence of FP10, a non-amyloid fibrin fragment^16, was used as a negative control. Fluorescence was measured in triplicate on a Hitachi F-4500 fluorescence spectrophotometer (Ltd., Tokyo, Japan).
Formulated protein therapeutics were obtained from the local hospital pharmacy and were used as supplied by the manufacturers. […] Lyophilized therapeutics were dissolved according to the manufacturers recommendations. GH, zinc-insulin, Cealb and gelatin were stored at −20, 4, room temperature, 37 and 65° C. Other protein therapeutics were only kept at 4° C., and assayed for the presence of cross-β structure at shown time points. Enhancement in fluorescence of ThT and Congo red was measured with all formulated protein therapeutics. […]
ThT fluorescence of β2GPI was measured as follows. […] In the ThT fluorescence assay, fluorescence of β2GPI in buffer, of CL or DXS500k in buffer, of buffer and ThT alone, and of β2GPI-CL adducts and β2GPI-DXS500k adducts, with or without ThT, was recorded as described above (section ThT fluorescence). In addition, TEM images were recorded with CL, β2GPI from human plasma, with or without CL, and with recombinant β2GPI, as described^5.
(§2) To prepare structurally altered ovalbumin (OVA) with amyloid cross-β structures, purified OVA (Sigma, A-7641, lot 071k7094) was heated to 85° C. […] Native OVA (nOVA) and heat-denatured OVA (dOVA) were tested in the ThT fluorescence assay and in the Plg-activation assay. In the fluorescence assay and in the Plg-activation assay, 25 and 100 μg ml^−1 nOVA and dOVA were tested, respectively. […]
MSA (#126674, Calbiochem) was dissolved in 8 M urea, 100 mM Tris-HCl pH 8.2, at 10 mg ml^−1 final concentration. […] The presence of aggregates or fibrils was analyzed using TEM. […]

tPA [2] = biological target: T2, tPA (Homo sapiens, UniProt P00750); test: Plasminogen-activation assay (tPA activation, S-2251); type: biochemical; conditions: β2GPI preparations, 100 μg ml^−1
Experimental: Plasmin (Pls) activity was assayed as described^16. Peptides and proteins that were tested for their stimulatory ability were regularly used at 100 μg ml^−1. […] Chromogenic substrate S-2251 (Chromogenix, Instrumentation Laboratory SpA, Milano, Italy) was used to measure Pls activity. Conversion of zymogen factor XII (#233490, Calbiochem, EMD Biosciences, Inc., San Diego, Calif.) to proteolytically active factor XII (factor XIIa) was assayed by measurement of the conversion of chromogenic substrate Chromozym-PK (Roche Diagnostics, Almere, The Netherlands) by kallikrein. Chromozym-PK was used at a concentration of 0.3 mM. […] The conversion of Chromozym-PK was recorded kinetically at 37° C. for at least 60 minutes. […]
Formulated protein therapeutics were obtained from the local hospital pharmacy and were used as supplied by the manufacturers. […] Enhancement in fluorescence of ThT and Congo red was measured with all formulated protein therapeutics. […]
as §2

tPA [3] = biological target: T2, tPA; test: ELISA, binding of β2GPI to immobilized tPA
Experimental: as §1

tPA [4] = biological target: T2, tPA; test: tPA/plasminogen activation assay; type: biochemical; conditions: β2gpi exposed to cardiolipin or alkylated, 100 μg/ml
Experimental: β2-GPI was reduced and alkylated as follows. Sixhundredforty μl of β2-GPI stock was mixed with 640 μl of 8 M Urea (cooled solution) in 0.1 M Tris pH-8.2. The solution was degassed with N2 gas for approximately 6 minutes. From a 1 M DTT stock 12.8 μl was added to the solution, mixed and incubated for 3 hours at room temperature. A 1 M Iodoacetamide (Sigma; I-6125) was prepared, of which 25.6 μl was added to the β2-GPI reaction mixture. The solution was subsequently dialysed against PBS. […] Signals obtained with alkyl-β2gpi are compared with those obtained with native β2gpi starting material and with positive control acid/heat denatured amyloid-like misfolded γ-globulins.
Exiqon Peptide Immobilizer plates were blocked for 1 hour with PBS, 1% Tween20 and rinsed twice with distilled water. The conversion of the chromogenic substrate S-2251 (Chromogenix, Italy) by plasmin was kinetically measured at 37° C. on a Spectramax340 microplate reader at a wavelength of 405 nm. […] Denatured γ-globulins (100 μg/ml) with amyloid-like structure was used as reference and positive control. Lyophilized γ-globulins (Sigma, Mo., USA) were dissolved in a 1(:)1 volume ratio of 1,1,1,3,3,3-hexafluoro-2-propanol and trifluoro-acetic acid and subsequently dried under air. […]
Protein therapeutics were obtained from the local hospital pharmacy and analyzed within the expiry limits as stated by the manufacturers.

T2 sequence (P00750 36-562): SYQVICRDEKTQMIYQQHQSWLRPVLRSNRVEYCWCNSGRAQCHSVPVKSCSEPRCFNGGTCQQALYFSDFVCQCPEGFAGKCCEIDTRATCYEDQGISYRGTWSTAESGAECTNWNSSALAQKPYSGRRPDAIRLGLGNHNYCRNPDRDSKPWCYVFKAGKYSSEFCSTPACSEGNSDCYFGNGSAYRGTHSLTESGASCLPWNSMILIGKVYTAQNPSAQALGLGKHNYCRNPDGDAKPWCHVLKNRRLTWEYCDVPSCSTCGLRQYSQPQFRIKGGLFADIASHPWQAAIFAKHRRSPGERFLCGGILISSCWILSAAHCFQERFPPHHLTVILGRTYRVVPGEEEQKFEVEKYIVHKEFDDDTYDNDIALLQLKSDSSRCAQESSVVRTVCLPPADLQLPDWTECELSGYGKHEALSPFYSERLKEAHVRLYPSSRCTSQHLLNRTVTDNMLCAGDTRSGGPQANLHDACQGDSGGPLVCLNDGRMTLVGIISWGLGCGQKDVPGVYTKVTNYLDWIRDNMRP

binding to factor XII (factor XII)	binding to tPA (tPA [3]; listed as β2GPI purified from fresh human plasma)	binding to tPA (tPA [3]; listed as β2GPI purified from plasma)	ability to activate tPA/plasminogen (tPA [4])	Molecule	ThT fluorescence signal [1]	stimulation of tPA-mediated conversion of Plg to Pls (tPA [2])
not	not	does not bind		β2GPI purified from fresh plasma: β2-glycoprotein I purified from fresh human plasma (protein) GRTCPKPDDLPFSTVVPLKTFYEPGEEITYSCKPGYVSRGGMRKFICPLTGLWPINTLKCTPRVCPFAGILENGAVRYTTFEYPNTISFSCNTGFYLNGADSAKCTEEGKWSPELPVCAPIICPPPSIPTFATLRVYKPSAGNNSLYRDTAVFECLPQHAMFGNDTITCTTHGNWTKLPECREVKCPFPSRPDNGFVNYPAKPTLYYKDKATFGCHDGYSLDGPEEIECTKLGNWSAMPSCKASCKVPVKKATVVYQGERVKIQEKFKNGMLHGDKVSFFCKNKEKKCSYTEDAQCIDGTIEVPKCFKEHSSLAFWKTDASDVKPC	increased ThT fluorescence signal	not
			accelerated	CL-β2gpi: β2gpi exposed to cardiolipin (protein) GRTCPKPDDLPFSTVVPLKTFYEPGEEITYSCKPGYVSRGGMRKFICPLTGLWPINTLKCTPRVCPFAGILENGAVRYTTFEYPNTISFSCNTGFYLNGADSAKCTEEGKWSPELPVCAPIICPPPSIPTFATLRVYKPSAGNNSLYRDTAVFECLPQHAMFGNDTITCTTHGNWTKLPECREVKCPFPSRPDNGFVNYPAKPTLYYKDKATFGCHDGYSLDGPEEIECTKLGNWSAMPSCKASCKVPVKKATVVYQGERVKIQEKFKNGMLHGDKVSFFCKNKEKKCSYTEDAQCIDGTIEVPKCFKEHSSLAFWKTDASDVKPC		

Source: patent US20080220446A1, “Method for Detecting and/or Removing Protein and/or Peptide Comprising a Cross-Beta Structure From an Aqueous Solution Comprising a Protein” (priority 2005, published 2008)
